Values belong to the molecule of their own block, whether it stands above or below them.
Tests used:
ReDAAO [1] = target: T1, ReDAAO (Rasamsonia emersonii, UniProt A0A499UB99); test: DNPH assay, […] D-Val as substrate; format: biochemical; details: read-out: % inhibition at 50 mM
T1 construct: gene DAO1; full-length, 368 aa, codon-optimised synthetic ORF in pET15b, His-tagged, E. coli BL21(DE3) pLysS; 42 kDa subunit, 185 kDa tetramer; noncovalent FAD

ReDAAO [2] = target: T1, ReDAAO; test: absorption spectrum; TLC of flavin released by heat denaturation; format: binding; details: noncovalent; co-purified from E. coli; pH 8.0
purified protein [3] = substrate: C[C@@H](N)C(=O)O; test: purified protein; details: apparent, 55 °C, 50 mM KPi pH 8.0, 0.02 mM FAD, O2 co-substrate
purified protein [4] = substrate: CC(C)[C@@H](N)C(=O)O; test: purified protein; format: biochemical, Rasamsonia emersonii; details: apparent, 55 °C, 50 mM KPi pH 8.0, 0.02 mM FAD, O2 co-substrate
purified protein [5] = substrate: CSCC[C@@H](N)C(=O)O; test: purified protein; format: biochemical, Rasamsonia emersonii; details: apparent, 55 °C, 50 mM KPi pH 8.0, 0.02 mM FAD, O2 co-substrate
purified protein [6] = substrate: N=C(N)NCCC[C@@H](N)C(=O)O; test: purified protein; format: biochemical, Rasamsonia emersonii; details: apparent, 55 °C, 50 mM KPi pH 8.0, 0.02 mM FAD, O2 co-substrate
purified protein [7] = substrate: N[C@H](CCC(=O)O)C(=O)O; test: purified protein; format: biochemical, Rasamsonia emersonii; details: apparent, 55 °C, 50 mM KPi pH 8.0, 0.02 mM FAD, O2 co-substrate

Molecule: C/C=C/C(=O)O [crotonate]
- inhibition at 50000 µM (ReDAAO [1]): 22.6%

Molecule: Cc1cc2nc3c(=O)[nH]c(=O)nc-3n(C[C@H](O)[C@H](O)[C@H](O)COP(=O)(O)OP(=O)(O)OC[C@H]3O[C@@H](n4cnc5c(N)ncnc54)[C@H](O)[C@@H]3O)c2cc1C [FAD]
- absorption spectrum; TLC of flavin released by heat denaturation (ReDAAO [2]): ReDAAO contains noncovalently bound FAD that functions as a cofactor

B1: ReDAAO (Rasamsonia emersonii) (protein)
chain: MATNNIVVLGAGVSGLTTAWLLSKDPSNKITVAAKHMPGDYDIEYCSPWAGANYLPVGAENSRVGQWERATWPHLRDIAQNHPEAGIHFQDTVVYNRTKDQGSTTGQWFSELVKPNPWYGKVLPNFRELSKDELPPGIDNANRFTSVCINTAVYLPWLVGQCRKNGVVFKRAVFKHVAEAANAHHSGQKADLVVNCTGLSSRKLGGVQDNTLLPARGQIVVVRNDPGLMCSISGTDDGDDEVTYMMTRAAGGGTILGGTYQKHNWDSLPDPNLAVRIMKRCIELCPSLVAPGQGIEGLDIIRHGVGLRPVREDGPRIEKELIDGVWVVHNYGHGGYGYQTSFGCATTAVEVVREALQQQKQRRDKARL
notes: full-length, 368 aa, codon-optimised synthetic ORF in pET15b, His-tagged, E. coli BL21(DE3) pLysS; 42 kDa subunit, 185 kDa tetramer; noncovalent FAD
- Km (purified protein [3]): 2700 ± 300 µM
- kcat (purified protein [3]): 189 s⁻¹
- kcat/Km (purified protein [3]): 69900 M⁻¹ s⁻¹
- Km (purified protein [4]): 628 ± 40 µM
- kcat (purified protein [4]): 225 ± 2.4 s⁻¹
- kcat/Km (purified protein [4]): 358000 M⁻¹ s⁻¹
- Km (purified protein [5]): 213 ± 30 µM
- kcat (purified protein [5]): 120 ± 3.1 s⁻¹
- kcat/Km (purified protein [5]): 562000 M⁻¹ s⁻¹
- Km (purified protein [6]): 19200 ± 4300 µM
- kcat (purified protein [6]): 45.6 ± 4.5 s⁻¹
- kcat/Km (purified protein [6]): 2380 M⁻¹ s⁻¹
- Km (purified protein [7]): 12100 ± 2900 µM
- kcat (purified protein [7]): 90.7 ± 6.6 s⁻¹
- kcat/Km (purified protein [7]): 7490 M⁻¹ s⁻¹

Other lines, results leading:

- inhibition at 50000 µM (ReDAAO [1]): 13.2%
Molecule: O=C(O)c1ccccc1 [benzoate]

- inhibition at 50000 µM (ReDAAO [1]): 17.2%
Molecule: O=C(O)C[C@@H](O)C(=O)O [D-malate]

Reference: paper PMC6697736, “A novel thermostable D-amino acid oxidase of the thermophilic fungus Rasamsonia emersonii strain YA” (Scientific Reports, 2019)
